Assay results from patent US6168954A, “Soybean glutathione-S-transferase enzymes” (E. I. du Pont de Nemours & Company, priority 1999, dated 2001).

B1: se6.pk0037.h4: soybean type III GST encoded by cDNA insert in clone se6.pk0037.h4, expressed in E. coli (protein)
chain: MAATQEDVTLLGVVGSPFVCRVQIALKLKGIECKFLEENLANKSDLLLKSNPVYKKVPVFIHNEKPIAESLVIVEYIDETWKNNPILPSDPYQRSFARFWSKFIDDKIVGASWKSVFTVDEKEREKNVEESLEALQFLENELQDKRFFGGDEFGFVDIAGVFIAFSIPIFQEVAGLQLFTSEKFPKLFKWSQELINHPVVKDVLPPREPLFAFFKSLYESLSASK
B2: GST-A: soybean type III GST encoded by cDNA insert in clone GSTa (protein)
chain: MSDEVVLLDFWPSPFGMRVRIALAEKGIKYEYKEEDLRNKSPLLLQMNPVHKKIPVLIHNGKPICESLIAVQYIEEVWNDRNPLLPSDPYQRAQTRFWADYVDKKIYDLGRKIWTSKGEEKEAAKKEFIEALKLLEEQLGDKTYFGGDNLGFVDIALVPFYTWFKAYETFGTLNIEECPKFIAWAKRCLQKESVAKSLPDQQKVYEFIMDLRKKLGIE
B3: se3.03b09: soybean type III GST encoded by cDNA insert in clone se3.03b09 (protein)
chain: MSKSEDLKLLGGWFSPFALRVQIALNLKGLEYEVVEETLNPKSDLLLKSNPVHKKIPVFFHGDKVICESAIIVEYIDEAWTNVPSILPQNAYDRANARFWFAYIDEKWFTSLRSVLVAEDDEAKKPHFEQAEEGLERLEEVFNKYSEGKAYFGGDSIGFIDIGFGSFLSWMRVIEEMSGRKLLDEKKHPGLTQWAETFAADPAVKGILPETDKLVEFAKILQLKWTAAAAAAAK
B4: ssl.pk0005.e6: soybean type III GST encoded by cDNA insert in clone ss1.pk0005.e6 (protein)
chain: MTDEVVLLDFWPSPFGMRVRIALAEKGIEYEYKEEDLRNKSPLLLQMNPVHKKIPVLIHNGKPISESLIAVQYIEEVWNDRNPLLPSDPYQRAQARFWADYVDIKIHDLGKKIWTSKGEEKEAAKKEFIEALKLLEEQLGDKTYFGGDNIGFVDIALVPFYTWFKVYETFGSLNIENECPRFVAWAKRCLQKESVAKSLPDQHKVYEFVVEIRKKLVIE
B5: ssl.pk0020.b10: soybean type III GST encoded by cDNA insert in clone ss1.pk0020.b10 (protein)
chain: MAEQDKVILHGMWASPYAKRVELALNFKGIPYEYVEEDLRNKSDLLLKYNPVHKKVPVLVHNGKAIAESMVILEYIDETWKDGPKLLPSDSYKRAQARFWCHFIQDQLMESTFLVVKTDGEAQQKAIDHVYEKLKVLEDGMKTYLGEGNAIISGVENNFGILDIVFCALYGAYKAHEEVIGLKFIVPEKFPVLFSWLMAIAEVEAVKIATPPHEKTVGILQLFRLSALKSSSATE
B6: ses8w.pk0028.c6: soybean type III GST encoded by cDNA insert in clone ses8w.pk0028.c6 (protein)
chain: MAANQEDVKLLGATGSPFVCRVQIALKLKGVQYKFLEENLRNKSELLLKSNPVHKKVPVFIHNEKPIAESLVIVEYIDETWKNNPILPSDPYQRALARFWSKFIDDKVVGAAWKYIYTVDEKEREKNVEESYEALQFLENELKDKKFFGGEEIGLVDIAAVFIAFWIPIIQEVLGLKLFTSEKFPKLYKWSQEFINHPVVKQVLPPRDQLFAFYKACHESLSASK
B7: ssm.pk0067.g5: soybean type III GST encoded by cDNA insert in clone ssm.pk0067.g5 (protein)
chain: MASYHEEEVRLLGKWASPFSNRVDLALKLKGVPYKYSEEDLANKSADLLKYNPVHKKVPVLVHNGNPLPESLIIVEYIDETWKNNPLLPQDPYERALARFWSKTLDDKILPAIWNACWSDENGREKAVEEALEALKILQETLKDKKFFGGESIGLVDIAANFIGYWVAILQEIAGLELLTIEKFPKLYNWSQDFINHPVIKEGLPPRDELFAFFKASAKK
B8: se6.pk0048.d7: soybean type III GST encoded by cDNA insert in clone se6.pk0048.d7 (protein)
chain: MADEVVLLDFWPSPFGMRVRIALAEKGIKYESKEEDLQNKSPLLLKMNPVHKKIPVLIHNGKPICESLVAVQYIEEVWNDRNPLLPSDPYQRAQARFWADFVDNKIFDLGRKIWTSKGEEKEAAKKEFIEALKLLEEQLGDKTYFGGDDLGFVDIALIPFDTWFKTFGSLNIESECPKFVAWAKRCLQKDSVAKSLPDQHKVYEFIMDIRKKFDIE

Experiment: GST conjugation activity with t-stilbene oxide (HPLC)
Type: biochemical
Conditions: 0.4 mM electrophilic substrate, 4 mM glutathione, 0.1 M MOPS pH 7.0, corrected for uncatalyzed reaction
From the text: (§1) The GST enzymes, expressed and purified as described in Example 5 were screened for their ability to metabolize a variety of substrates. Substrates tested included the three herbicide electrophilic substrates chlorimuron ethyl, alachlor, and Atrazine, and four model electrophilic substrates, 1-chloro-2, 4-dinitro-benzene (CDNB), ethacrynic acid, t-stilbene oxide, and 1,2-epoxy-3-(p-nitro-phenoxy) propane. The enzymes were purified as described in Example 5 and used in the following assay.
(§2) For each enzyme, the conjugation reaction with each electrophilic substrate was performed by incubating 0.3 to 30 μg enzyme in 0.1 M MOPS (pH 7.0) containing 0.4 mM of the electrophilic substrate. The reaction was inititated by the addition of glutathione to a final concentration of 4 mM. After 5 to 30 min, the reaction was terminated by the addition of 45 μL acetonitrile, microfuged for 10 min to remove precipitated protein, and then the supematent was removed and added to 65 μL of water. This sample was chromatographed on a Zorbax C8 reverse phase HPLC column (3 μm particle size, 6.2 mm×8 cm) using a combination of linear gradients (flow=1.5 mL/min) of 1% H3 PO4 in water (solvent A) and 1% H3 PO4 in acetonitile. The gradient started with 5% solvent B, progressing from 5% to 75% solvent B between 1 and 10 min, and from 75% to 95% solvent B between 10 and 12 min. Control reactions without enzyme were performed to correct for uncatalyzed reaction. Quantitation of metabolites were based on an assumption that the extinction coefficient of the conjugate was identical to that of the electrophilic substrate.
(§3) Activities are related to the activity of a known and previously isolated and purified GST enzyme, GH2/4 (also called GST 26) (Czarnecka et al., Plant Molecular Biology 3:45-58 (1984); Ulmasoz et al., Plant Physiol 108:919-927 (1995)).

B1 and B2 are the same in “Activity of soybean GST enzyme, T-Stilbene Oxide” value (shortened to “Activity … T-Stilbene Oxide”): 0.06 nmol/min/mg for the first, 0.06 nmol/min/mg for the second.

Going from B3 to B4, the “Activity … T-Stilbene Oxide” value falls from 0.07 nmol/min/mg to 0.06 nmol/min/mg.

First: B5
Second: B6
The “Activity … T-Stilbene Oxide” value of the first is lower: 0.02 nmol/min/mg for the first, 4.04 nmol/min/mg for the second.

Compared with B7, B8 is lower in “Activity … T-Stilbene Oxide” value: 0.49 nmol/min/mg for the first, 0.07 nmol/min/mg for the second.

Experiment: GST conjugation activity with CDNB (HPLC)
Type: biochemical
Conditions: 0.4 mM electrophilic substrate, 4 mM glutathione, 0.1 M MOPS pH 7.0, corrected for uncatalyzed reaction
From the text: as §1, §2, §3

Going from B1 to B2, the “Activity of soybean GST enzyme, CDNB” value falls from 2364 nmol/min/mg to 1924 nmol/min/mg.

Going from B3 to B4, the “Activity of soybean GST enzyme, CDNB” value falls from 14364 nmol/min/mg to 2030 nmol/min/mg.

Going from B5 to B6, the “Activity of soybean GST enzyme, CDNB” value rises from 470 nmol/min/mg to 515 nmol/min/mg.

First: B7
Second: B8
The “Activity of soybean GST enzyme, CDNB” value of the first is higher: 1394 nmol/min/mg for the first, 1379 nmol/min/mg for the second.

Experiment: GST conjugation activity with ethacrynic acid (HPLC)
Type: biochemical
Conditions: 0.4 mM electrophilic substrate, 4 mM glutathione, 0.1 M MOPS pH 7.0, corrected for uncatalyzed reaction
From the text: as §1, §2, §3

Going from B1 to B2, the “Activity of soybean GST enzyme, Ethacrynic Acid” value (“Activity … Ethacrynic Acid” for short) rises from 13 nmol/min/mg to 109 nmol/min/mg.

First: B3
Second: B4
The “Activity … Ethacrynic Acid” value of the first is lower: 1 nmol/min/mg for the first, 11 nmol/min/mg for the second.

Compared with B5, B6 is higher in “Activity … Ethacrynic Acid” value: 14 nmol/min/mg for the first, 17 nmol/min/mg for the second.

First: B7
Second: B8
The “Activity … Ethacrynic Acid” value of the first is higher: 13 nmol/min/mg for the first, 4 nmol/min/mg for the second.

Experiment: GST conjugation activity with Atrazine (HPLC)
Type: biochemical
Conditions: 0.4 mM electrophilic substrate, 4 mM glutathione, 0.1 M MOPS pH 7.0, corrected for uncatalyzed reaction
From the text: as §1, §2, §3

First: B1
Second: B2
The “Activity of soybean GST enzyme, Atrazine” value of the first is higher: 0.19 nmol/min/mg for the first, 0.03 nmol/min/mg for the second.

First: B4
Second: B5
The “Activity of soybean GST enzyme, Atrazine” value of the first is lower: 0.00 nmol/min/mg for the first, 0.03 nmol/min/mg for the second.

First: B6
Second: B7
The “Activity of soybean GST enzyme, Atrazine” value of the first is higher: 1.40 nmol/min/mg for the first, 0.03 nmol/min/mg for the second.

In the case of B8, the “Activity of soybean GST enzyme, Atrazine” value is reported as 0.76 nmol/min/mg.

Experiment: GST conjugation activity with 1,2-epoxy-3-(p-nitrophenoxy)propane (HPLC)
Type: biochemical
Conditions: 0.4 mM electrophilic substrate, 4 mM glutathione, 0.1 M MOPS pH 7.0, corrected for uncatalyzed reaction
From the text: as §1, §2, §3

First: B1
Second: B2
The “Activity of soybean GST enzyme, 1,2-epoxy-3-(p-nitrophenoxy)propane” value (shortened to “Activity … 1,2-epoxy-3-(p-nitrophenoxy)propane”) of the first is lower: 1 nmol/min/mg for the first, 22 nmol/min/mg for the second.

First: B3
Second: B4
The “Activity … 1,2-epoxy-3-(p-nitrophenoxy)propane” value of the first is higher: 20 nmol/min/mg for the first, 4 nmol/min/mg for the second.

Going from B5 to B6, the “Activity … 1,2-epoxy-3-(p-nitrophenoxy)propane” value falls from 47 nmol/min/mg to 12 nmol/min/mg.

First: B7
Second: B8
The “Activity … 1,2-epoxy-3-(p-nitrophenoxy)propane” value of the first is higher: 19 nmol/min/mg for the first, 9 nmol/min/mg for the second.

Experiment: GST conjugation activity with alachlor (HPLC)
Type: biochemical
Conditions: 0.4 mM electrophilic substrate, 4 mM glutathione, 0.1 M MOPS pH 7.0, corrected for uncatalyzed reaction
From the text: as §1, §2, §3

Going from B1 to B2, the “Activity of soybean GST enzyme, Alachlor” value rises from 1 nmol/min/mg to 71 nmol/min/mg.

Going from B3 to B4, the “Activity of soybean GST enzyme, Alachlor” value falls from 168 nmol/min/mg to 166 nmol/min/mg.

Compared with B5, B6 is higher in “Activity of soybean GST enzyme, Alachlor” value: 7 nmol/min/mg for the first, 10 nmol/min/mg for the second.

Going from B7 to B8, the “Activity of soybean GST enzyme, Alachlor” value rises from 4 nmol/min/mg to 8 nmol/min/mg.

Experiment: GST conjugation activity with chlorimuron ethyl (HPLC)
Type: biochemical
Conditions: 0.4 mM electrophilic substrate, 4 mM glutathione, 0.1 M MOPS pH 7.0, corrected for uncatalyzed reaction
From the text: as §1, §2, §3

Compared with B1, B2 is higher in “Activity of soybean GST enzyme, Chlorimuron Ethyl” value (“Activity … Chlorimuron Ethyl” below): 0.1 nmol/min/mg for the first, 0.5 nmol/min/mg for the second.

Compared with B3, B4 is lower in “Activity … Chlorimuron Ethyl” value: 4.4 nmol/min/mg for the first, 1.4 nmol/min/mg for the second.

Going from B5 to B6, the “Activity … Chlorimuron Ethyl” value rises from 0.1 nmol/min/mg to 0.2 nmol/min/mg.

First: B7
Second: B8
The “Activity … Chlorimuron Ethyl” value of the first is lower: 0.1 nmol/min/mg for the first, 0.5 nmol/min/mg for the second.
